Kd data for one molecule are collected here from patent publication US20210171613A1.

The target in this test is Clostridium difficile toxin A (TcdA) (Clostridium difficile), P16154. Nature of the test: SPR (Biacore 3000), VHH over immobilized TcdA, 1:1 fit. To be noted: remark: other sources report otherwise. In general terms: In SPR one partner is held on a chip, and binding of the other changes the refractive index at the surface.
Clostridium difficile toxin A (TcdA) (Clostridium difficile), P16154, sequence (P16154 whole entry): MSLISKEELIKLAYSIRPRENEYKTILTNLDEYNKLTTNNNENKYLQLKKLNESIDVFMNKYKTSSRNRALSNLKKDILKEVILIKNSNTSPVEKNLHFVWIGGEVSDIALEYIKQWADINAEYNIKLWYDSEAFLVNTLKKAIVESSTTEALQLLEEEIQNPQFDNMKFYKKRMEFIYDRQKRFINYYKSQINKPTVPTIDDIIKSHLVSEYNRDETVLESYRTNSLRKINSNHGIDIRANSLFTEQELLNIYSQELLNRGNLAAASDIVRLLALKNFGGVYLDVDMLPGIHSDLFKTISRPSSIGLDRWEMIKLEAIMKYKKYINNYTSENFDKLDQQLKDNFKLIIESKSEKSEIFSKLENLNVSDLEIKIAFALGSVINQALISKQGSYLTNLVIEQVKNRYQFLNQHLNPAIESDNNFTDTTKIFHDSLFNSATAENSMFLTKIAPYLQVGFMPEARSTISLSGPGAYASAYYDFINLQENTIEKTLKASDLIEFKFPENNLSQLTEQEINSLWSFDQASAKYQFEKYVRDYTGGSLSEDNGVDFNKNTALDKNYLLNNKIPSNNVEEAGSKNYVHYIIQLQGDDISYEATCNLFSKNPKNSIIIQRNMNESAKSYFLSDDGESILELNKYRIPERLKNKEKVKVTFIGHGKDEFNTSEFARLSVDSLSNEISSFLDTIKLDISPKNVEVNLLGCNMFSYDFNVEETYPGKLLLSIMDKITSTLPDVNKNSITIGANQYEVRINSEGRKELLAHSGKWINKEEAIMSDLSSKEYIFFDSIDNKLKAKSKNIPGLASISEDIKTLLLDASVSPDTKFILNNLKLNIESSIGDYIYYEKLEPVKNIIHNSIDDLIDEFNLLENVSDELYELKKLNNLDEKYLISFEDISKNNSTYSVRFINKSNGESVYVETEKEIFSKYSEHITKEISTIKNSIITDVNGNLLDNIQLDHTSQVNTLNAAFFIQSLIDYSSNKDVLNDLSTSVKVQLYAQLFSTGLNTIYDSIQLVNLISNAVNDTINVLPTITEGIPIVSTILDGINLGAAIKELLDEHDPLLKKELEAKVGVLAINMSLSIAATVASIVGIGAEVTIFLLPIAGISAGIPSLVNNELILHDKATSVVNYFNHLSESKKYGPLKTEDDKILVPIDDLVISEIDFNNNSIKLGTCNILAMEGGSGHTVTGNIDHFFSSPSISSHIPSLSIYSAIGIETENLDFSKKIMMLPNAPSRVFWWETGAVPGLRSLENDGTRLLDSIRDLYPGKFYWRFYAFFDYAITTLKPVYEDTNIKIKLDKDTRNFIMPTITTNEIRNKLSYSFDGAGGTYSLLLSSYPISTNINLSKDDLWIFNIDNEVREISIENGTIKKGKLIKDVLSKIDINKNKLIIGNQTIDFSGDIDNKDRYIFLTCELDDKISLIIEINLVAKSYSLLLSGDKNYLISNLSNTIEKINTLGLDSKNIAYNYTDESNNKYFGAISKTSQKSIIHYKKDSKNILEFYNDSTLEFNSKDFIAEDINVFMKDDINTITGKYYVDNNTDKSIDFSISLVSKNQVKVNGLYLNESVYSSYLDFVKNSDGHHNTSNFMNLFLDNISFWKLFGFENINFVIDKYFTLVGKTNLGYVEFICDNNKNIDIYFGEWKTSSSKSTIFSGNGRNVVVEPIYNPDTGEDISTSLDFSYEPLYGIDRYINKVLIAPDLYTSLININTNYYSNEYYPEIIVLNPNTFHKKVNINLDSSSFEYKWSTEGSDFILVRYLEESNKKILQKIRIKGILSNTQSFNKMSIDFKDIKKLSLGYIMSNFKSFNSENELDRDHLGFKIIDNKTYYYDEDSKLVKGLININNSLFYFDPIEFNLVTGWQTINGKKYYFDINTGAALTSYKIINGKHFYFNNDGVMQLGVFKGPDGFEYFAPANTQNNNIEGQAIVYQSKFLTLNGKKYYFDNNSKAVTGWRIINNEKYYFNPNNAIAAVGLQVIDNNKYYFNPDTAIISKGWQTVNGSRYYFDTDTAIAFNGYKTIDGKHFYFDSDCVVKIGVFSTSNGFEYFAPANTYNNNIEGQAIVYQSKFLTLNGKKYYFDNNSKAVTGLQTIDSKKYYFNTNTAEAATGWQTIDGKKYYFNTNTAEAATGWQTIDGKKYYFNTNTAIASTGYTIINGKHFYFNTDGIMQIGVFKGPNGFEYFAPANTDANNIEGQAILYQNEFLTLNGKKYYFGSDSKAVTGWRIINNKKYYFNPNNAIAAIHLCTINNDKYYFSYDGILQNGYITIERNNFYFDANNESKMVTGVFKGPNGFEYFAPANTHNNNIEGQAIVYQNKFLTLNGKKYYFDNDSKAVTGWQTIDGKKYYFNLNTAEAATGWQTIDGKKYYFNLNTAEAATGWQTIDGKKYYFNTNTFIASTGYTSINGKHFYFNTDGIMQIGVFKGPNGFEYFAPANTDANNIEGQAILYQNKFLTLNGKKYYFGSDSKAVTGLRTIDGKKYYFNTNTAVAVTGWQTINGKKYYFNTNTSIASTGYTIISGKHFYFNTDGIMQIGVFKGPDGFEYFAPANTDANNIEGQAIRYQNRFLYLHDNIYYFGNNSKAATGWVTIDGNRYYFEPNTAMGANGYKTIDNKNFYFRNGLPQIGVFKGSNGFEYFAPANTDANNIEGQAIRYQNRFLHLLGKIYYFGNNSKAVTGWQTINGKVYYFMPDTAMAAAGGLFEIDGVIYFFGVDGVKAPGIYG

B1: Parent A26.8 VHH (VHH, not shown: small tags and cut ends)
VHH: QVKLEESGGGLVQAGGSLRLSCAASERTFSRYPVAWFRQAPGAEREFVAVISSTGTSTYYADSVKGRFTISRDNAKVTVYLQMNNLKREDTAVYFCAVNSQRTRLQDPNEYDYWGQGTQVTVSS
One may read the Kd as the concentration at which binding is half-saturated. A high value points to a looser complex. B1 registered a dissociation constant Kd of 0.0187 µM.
